The values below come from patent US20170240619A1.

Assay [1] has as its target Biotinylated HER2 extracellular domain (human) (UniProt P04626). The assay can be described thus: SPR (BIAcore), biotinylated HER2 ECD on streptavidin chip, scFv injected, 1:1 Langmuir fit. (SPR reads the build-up and loss of mass on a sensor chip optically.)
Assay [2] addresses HER2 on SK-BR-3 human breast cancer cells (human) (UniProt P04626). The assay can be described thus: flow cytometry on SK-BR-3 cells, human IgG1, anti-human IgG-FITC detection.

What is called Kd is the concentration at which binding is half-saturated. A high value points to a looser complex. As a reminder, the koff is a measure of how fast the partners let go of each other. Read a low koff as a long-lived complex. Broadly, the kon is the second-order rate constant of association. In assay [1], 4D5-b (4D5 scFv, VL 52D) had a Kd of 7.6 nM, a koff of 0.00091 s⁻¹ and a kon of 120000 M⁻¹ s⁻¹.
Usually EC50 stands for the concentration giving half of the maximal effect. Higher therefore signals a less potent agent. Consider “4D5 as human IgG1, VL 52D (WT/52D) (antibody)”, for which the EC50 in assay [2] was found to be 0.925 µg/mL.
